Measurements as given in article PMC4270767 (PLoS ONE, 2014).

B1: Wild-type: recombinant hexa-his-tagged M. tuberculosis phosphoserine phosphatase SerB2 (Rv3042c) (protein, UniProt O53289 1-409, looked up)
chain: MPAKVSVLITVTGMDQPGVTSALFEVLAQHGVELLNVEQVVIRGRLTLGVLVSCPLDVADGTALRDDVAAAIHGVGLDVAIERSDDLPIIRQPSTHTIFVLGRPITAGAFSAVARGVAALGVNIDFIRGISDYPVTGLELRVSVPPGCVGPLQIALTKVAAEEHVDVAVEDYGLAWRTKRLIVFDVDSTLVQGEVIEMLAARAGAQGQVAAITEAAMRGELDFAESLQRRVATLAGLPATVIDDVAEQLELMPGARTTIRTLRRLGFRCGVVSGGFRRIIEPLARELMLDFVASNELEIVDGILTGRVVGPIVDRPGKAKALRDFASQYGVPMEQTVAVGDGANDIDMLGAAGLGIAFNAKPALREVADASLSHPYLDTVLFLLGVTRGEIEAADAGDCGVRRVEIPAD
modifications: full-length His6 tag
B2: ACT-domains: ACT domains of MtSerB2 alone (residues 1–165) (protein, UniProt O53289 1-165, looked up, fragment)
chain: MPAKVSVLITVTGMDQPGVTSALFEVLAQHGVELLNVEQVVIRGRLTLGVLVSCPLDVADGTALRDDVAAAIHGVGLDVAIERSDDLPIIRQPSTHTIFVLGRPITAGAFSAVARGVAALGVNIDFIRGISDYPVTGLELRVSVPPGCVGPLQIALTKVAAEEHV
modifications: ACT domains
B3: PSPD: phosphoserine phosphatase domain of MtSerB2 alone (residues 165–409) (protein, UniProt O53289 165-409, looked up, fragment)
chain: VDVAVEDYGLAWRTKRLIVFDVDSTLVQGEVIEMLAARAGAQGQVAAITEAAMRGELDFAESLQRRVATLAGLPATVIDDVAEQLELMPGARTTIRTLRRLGFRCGVVSGGFRRIIEPLARELMLDFVASNELEIVDGILTGRVVGPIVDRPGKAKALRDFASQYGVPMEQTVAVGDGANDIDMLGAAGLGIAFNAKPALREVADASLSHPYLDTVLFLLGVTRGEIEAADAGDCGVRRVEIPAD
modifications: phosphoserine phosphatase domain

Test system: THP-1 cells
Type: cell-based
Conditions: 100 µg of purified protein, 30 minutes and 2 hours

Molecule	rearrangement of microtubules
B1	striking rearrangement of microtubules
B2	almost no re-arrangement of the microtubules
B3	significant
